B1: 17E1 antibody-drug conjugate with PBD dimer (DAR=2) (antibody, V domains shown)
VH: QVQLQQPGSVLVRPGASVKLSCKASGYTFTSSWMHWAKQRPGQGLEWIGHIHPNSGISNYNEKFKGKATLTVDTSSSTAYVDLSSLTSEDSAVYYCSRGGRFDDWGAGTTVTVSS
VL: DIQMTQSPSSLSASLGERVSLTCRASQDIGSSLNWLQQEPDGTIKRLIYATSRLDSGVPKRFSGSRSGSDYSLTISSLESEDFVDYYCLQYASSPWTFGGGTKLEIK
modifications: PBD dimer through amino-PEG-azide / DBCO-val-ala linker on Q295 (Kabat EU numbering) of each heavy chain; deglycosylated with PNGaseF
B2: 9H11A antibody-drug conjugate with PBD dimer (DAR=2) (antibody, V domains shown)
VH: QVQLQQPGAELVKPGASVKLSCKASGYTFTSYWMHWVKLRPGQGFEWIGEIIPSNGVTNYNEKFKRKATLTVDKSSSTAYMQLSSLTSEDSAVYYCTIRLRYALDYWGQGTSVTVSA
VL: DIQMTQTTSSLSASLGDRVTISCRASQDISNFLNWYQQKPDGTVKLLIYYTSRLHSGVPSRFSGSGSGTDYSLTISNLEQEDIATYFCQQGNTLPPTFGGGTKLEIK
modifications: PBD dimer through amino-PEG-azide / DBCO-val-ala linker on Q295 (Kabat EU numbering) of each heavy chain; deglycosylated with PNGaseF
B3: 9H11B antibody-drug conjugate with PBD dimer (DAR=2) (antibody, V domains shown)
VH: B2 VH
VL: DIVMTQSQKFMSTSVGDRVSVTCKASQNVGTNVAWYQQKPGQSPKALIYSTSFRYSGVPDRFTGSGSGTDFTLTISNVQSEDLAEYFCQQYNSYPFTFGSGTKLEIK
modifications: PBD dimer through amino-PEG-azide / DBCO-val-ala linker on Q295 (Kabat EU numbering) of each heavy chain; deglycosylated with PNGaseF
B4: 8B6B (antibody, V domains shown)
VH: QVQLQQPGSELVRPGASVKLSCKASGYTFTSYWMHWVKQRPGQGLEWIGTIYPGSDITNYDEKFKNKATLTVDTSSSTAYMQLSSLTSEDSAVYYCTRDGRFANWGQGTLVTVSA
VL: B1 VL with D1E, R53S, W96Y
notes: Same heavy chain variable domain as 8B6A with a different light chain; also called CHG1-M-H46 8B6-B
B5: 17E1 (antibody, V domains shown)
VH: B1 VH
VL: B1 VL
notes: also called CHG1-M-H46 17E1
B6: 8B6A (antibody, V domains shown)
VH: B4 VH
VL: EIVLTQSPAITAASLGQKVTITCSASSSVSYMHWYQQKSGTSPKPWIYEISKLASGVPARFSGSGSGTSYSLTISSMEAEDAAIYYCQQWNLPLTFGAGTKLELK
notes: Mouse variable domains; light chain is kappa (VK); also called CHG1-M-H46 8B6-A
B7: 9H11B (antibody, V domains shown)
VH: B2 VH
VL: B3 VL
notes: Same heavy chain variable domain as 9H11A with a different light chain; also called CHG1-M-H46 9H11-B
B8: 9H11A (antibody, V domains shown)
VH: B2 VH
VL: B2 VL
notes: also called CHG1-M-H46 9H11-A

Residue numbers refer to the chain shown, from its start.

What is called EC50 is the midpoint of the concentration-response curve. High values mean weaker potency, low ones greater potency. Broadly, the Kd is a measure of binding affinity in units of concentration. As a reminder, the koff is the rate constant with which the complex falls apart. The kon is the rate constant with which the complex forms.

T3 sequence (O76036 22-255 Q82K limits assumed): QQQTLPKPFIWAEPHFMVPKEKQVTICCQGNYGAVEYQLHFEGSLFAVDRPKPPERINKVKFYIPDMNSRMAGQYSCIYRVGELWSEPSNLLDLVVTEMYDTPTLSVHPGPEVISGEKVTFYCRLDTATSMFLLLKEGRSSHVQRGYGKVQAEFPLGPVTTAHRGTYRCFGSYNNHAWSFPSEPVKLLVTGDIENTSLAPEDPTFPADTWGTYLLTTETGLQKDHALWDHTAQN
T1 sequence (O76036 22-304 Q82K limits assumed): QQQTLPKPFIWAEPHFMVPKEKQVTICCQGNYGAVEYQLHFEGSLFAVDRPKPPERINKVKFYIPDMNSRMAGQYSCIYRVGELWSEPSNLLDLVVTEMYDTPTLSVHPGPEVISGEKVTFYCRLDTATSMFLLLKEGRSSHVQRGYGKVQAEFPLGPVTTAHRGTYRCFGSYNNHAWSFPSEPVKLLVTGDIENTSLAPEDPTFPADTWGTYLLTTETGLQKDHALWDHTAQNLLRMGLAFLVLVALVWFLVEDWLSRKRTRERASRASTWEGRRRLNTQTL

The first experiment has as its target T1, human NKp46 expressed on cells (human, UniProt O76036 22-304). The experiment can be described thus: cell-based or functional assay.
Consider B1, for which the “IC50 for cytotoxicity towards SNK6 cells (Cell Titer Glo, 72 h)” value (“IC50 for cytotoxicity towards SNK6 cells” for short) was determined as 0.01 ng/mL.

As to B2, the “IC50 for cytotoxicity towards SNK6 cells” value is 0.02 ng/mL.

Take B3: the “IC50 for cytotoxicity towards SNK6 cells” value was 0.01 ng/mL.

A further experiment deals with T1, human NKp46 expressed on cells. The experiment can be described thus: flow cytometry on Raji-hNKp46 cells, dose range, anti-human IgG1-PE detection. As to the method: Flow cytometry: Cells were harvested and stained in PBS 1×/BSA 0.2%/EDTA 2 mM buffer during 30 minutes at 4° C. using a dose-range of the anti-NKp46 mAbs. After two washes in staining buffer, cells incubated with anti-NKp46 antibodies were stained for 30 min at 4° C. with mouse anti-human IgG1-PE monoclonal antibodies from Miltenyi (dil. 1/10). After two washes, the stainings were acquired on the HTFC Intellicyt device and analyzed using the ForeCyt software.
(In general: A flow cytometer gives signals particle by particle.)
For B4, the EC50 stood at 76 ng/mL.

Regarding B5, a half-maximal response (EC50) required 55 ng/mL.

Molecule B6 showed an EC50 of 148 ng/mL.

As to B7, the midpoint of the response, the EC50, lay at 124 ng/mL.

B8 displayed an EC50 of 51 ng/mL.

The target of the next experiment is T2, Macaca fascicularis NKp46 expressed on CHO cells (Macaca fascicularis, UniProt Q95JB9 22-306).
T2 construct: Cloned from Macaca fascicularis cDNA and transfected into the CHO cell line; also called cyno NKp46; CHO-cynoNKp46
T2 sequence (Q95JB9 22-306 limits assumed): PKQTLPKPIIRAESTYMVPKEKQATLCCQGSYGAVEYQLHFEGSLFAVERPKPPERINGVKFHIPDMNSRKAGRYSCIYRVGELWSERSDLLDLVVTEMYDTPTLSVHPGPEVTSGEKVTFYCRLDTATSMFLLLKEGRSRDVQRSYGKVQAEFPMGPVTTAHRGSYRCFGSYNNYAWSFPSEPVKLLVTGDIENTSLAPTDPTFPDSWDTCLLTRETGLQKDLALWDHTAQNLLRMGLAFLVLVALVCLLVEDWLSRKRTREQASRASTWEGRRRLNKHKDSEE
The experiment can be described thus: flow cytometry on CHO cells transfected with cyno NKp46, dose range, anti-human IgG1-PE detection. As to the method:
The antibodies (including 8B6A, 8B6B, 9H11A, 9H11B and 17E1) were assessed for binding to Macaca fascicularis NKp46 (cyno NKp46) protein. The sequence of cyno NKp46 (shown below) was cloned from Macaca fascicularis cDNA and transfected into the CHO cell line. The binding of CHG1-M-H46 to CHO-cynoNKp46 was analyzed by flow cytometry.
Flow cytometry: CHO cells were harvested and stained in PBS 1×/BSA 0.2%/EDTA 2 mM buffer during 30 minutes at 4° C. using a dose-range of the anti-NKp46 mAbs. After two washes in staining buffer, cells incubated with anti-NKp46 antibodies were stained for 30 min at 4° C. with mouse anti-human IgG1-PE monoclonal antibodies from Miltenyi (dil 1/10). After two washes, stainings were acquired on a HTFC Intellicyt and analyzed using ForeCyt software.
For B4, the midpoint of the response, the EC50, lay at 28 ng/mL.

Consider B5, for which the concentration giving a half-maximal response (EC50) turned out to be 59 ng/mL.

Molecule B6 returned an EC50 of 29 ng/mL.

In turn, B7 returned an EC50 of 25 ng/mL.

Molecule B8 showed an EC50 of 26 ng/mL.

The next experiment concerns the target T3, Human 6xHis tagged NKp46 recombinant protein (human, UniProt O76036 22-255, limits assumed).
T3 construct: also called NKp46-His; soluble NKp46-His recombinant proteins; not shown: 6xHis tag
The experiment can be described thus: SPR Biacore T100, antibody captured on Protein-G chip, soluble NKp46-His 12.5-200 nM, single cycle kinetics, 1:1 model, monovalent. As to the method: SPR measurements were performed on a Biacore T100 apparatus (Biacore GE Healthcare) at 25° C. In all Biacore experiments HBS-EP+ (Biacore GE Healthcare) and NaOH 10 mM NaCl 500 mM served as running buffer and regeneration buffer respectively. Sensorgrams were analyzed with Biacore T100 Evaluation software. Protein-G was purchase from GE Healthcare and Anti-His antibody from QIAGEN. Human 6×His tagged NKp46 recombinant proteins (NKp46-His) were cloned, produced and purified at Innate Pharma.
Affinity study has been performed using the Protein-G chip. Monovalent affinity study was done following the Single Cycle Kinetic (SCK) protocol. Five serial dilutions of soluble NKp46-His recombinant proteins ranging from 12.5 to 200 nM were injected over the captured Anti-NKp46 anti bodies (without regeneration) and allowed to dissociate for 10 min before regeneration. For each antibody, the entire sensorgram was fitted using the 1:1 SCK binding model.
Background: In SPR one partner is held on a chip, and binding of the other changes the refractive index at the surface.
On to B4, for which the Kd came out at 4.07 nM, the off-rate constant (koff) worked out at 0.0011 s⁻¹ and the association rate constant (kon) is 271000 M⁻¹ s⁻¹.

In the case of B6, the Kd worked out at 4.08 nM, the koff is 0.00109 s⁻¹ and the kon is 267000 M⁻¹ s⁻¹.

Turning to B7, the Kd was 0.892 nM, the off-rate constant (koff) amounted to 0.000253 s⁻¹ and the kon came out at 283000 M⁻¹ s⁻¹.

With B8, the Kd is 0.728 nM, the koff amounted to 0.000199 s⁻¹ and the kon was 273000 M⁻¹ s⁻¹.

Values taken from US20190367609A1 (INNATE PHARMA, published 2019).
